Tests used:
[1] = molecular target: TIM-1 antigen, cell membrane-bound (on ACHN, CAKI-2, CAKI-1 renal cancer cells and polarized/activated human CD4+ T cells) (human) (UniProt Q96D42); assay: FACS on activated T cells, Day 0, +MMPI
[2] = molecular target: TIM-1 antigen, cell membrane-bound (on ACHN, CAKI-2, CAKI-1 renal cancer cells and polarized/activated human CD4+ T cells) (human) (UniProt Q96D42); assay: FACS on activated T cells, Day 0, -MMPI
[3] = molecular target: TIM-1 antigen, cell membrane-bound (on ACHN, CAKI-2, CAKI-1 renal cancer cells and polarized/activated human CD4+ T cells) (human) (UniProt Q96D42); assay: FACS on activated T cells, Day 1, +MMPI
[4] = molecular target: TIM-1 antigen, cell membrane-bound (on ACHN, CAKI-2, CAKI-1 renal cancer cells and polarized/activated human CD4+ T cells) (human) (UniProt Q96D42); assay: FACS on activated T cells, Day 1, -MMPI
[5] = molecular target: TIM-1 antigen, cell membrane-bound (on ACHN, CAKI-2, CAKI-1 renal cancer cells and polarized/activated human CD4+ T cells) (human) (UniProt Q96D42); assay: FACS on activated T cells, Day 2, +MMPI
[6] = molecular target: TIM-1 antigen, cell membrane-bound (on ACHN, CAKI-2, CAKI-1 renal cancer cells and polarized/activated human CD4+ T cells) (human) (UniProt Q96D42); assay: FACS on activated T cells, Day 2, -MMPI
[7] = molecular target: TIM-1 antigen, cell membrane-bound (on ACHN, CAKI-2, CAKI-1 renal cancer cells and polarized/activated human CD4+ T cells) (human) (UniProt Q96D42); assay: FACS on activated T cells, Day 4, +MMPI
[8] = molecular target: TIM-1 antigen, cell membrane-bound (on ACHN, CAKI-2, CAKI-1 renal cancer cells and polarized/activated human CD4+ T cells) (human) (UniProt Q96D42); assay: FACS on activated T cells, Day 4, -MMPI
[9] = molecular target: TIM-1 antigen, cell membrane-bound (on ACHN, CAKI-2, CAKI-1 renal cancer cells and polarized/activated human CD4+ T cells) (human) (UniProt Q96D42); assay: FACS on activated T cells, Day 5, +MMPI
[10] = molecular target: TIM-1 antigen, cell membrane-bound (on ACHN, CAKI-2, CAKI-1 renal cancer cells and polarized/activated human CD4+ T cells) (human) (UniProt Q96D42); assay: FACS on activated T cells, Day 5, -MMPI

Sequence of TIM-1 antigen, cell membrane-bound (on ACHN, CAKI-2, CAKI-1 renal cancer cells and polarized/activated human CD4+ T cells) (human) (Q96D42 21-364): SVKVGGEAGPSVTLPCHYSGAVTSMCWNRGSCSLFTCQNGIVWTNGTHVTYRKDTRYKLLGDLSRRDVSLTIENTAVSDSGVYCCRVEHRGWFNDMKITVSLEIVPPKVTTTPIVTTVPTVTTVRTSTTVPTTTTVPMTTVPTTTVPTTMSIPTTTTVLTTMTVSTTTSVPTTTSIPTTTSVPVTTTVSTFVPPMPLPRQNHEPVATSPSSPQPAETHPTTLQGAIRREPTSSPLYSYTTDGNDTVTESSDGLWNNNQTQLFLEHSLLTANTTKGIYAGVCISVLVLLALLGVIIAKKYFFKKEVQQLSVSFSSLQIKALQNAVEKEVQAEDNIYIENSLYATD

## isotype matched control mAb PK16.3 (antibody)
[1]
  Percent of activated T cells that express TIM-1 (percent stained): 1%
[2]
  Percent of activated T cells that express TIM-1 (percent stained): 1%
[3]
  Percent of activated T cells that express TIM-1 (percent stained): 2%
[4]
  Percent of activated T cells that express TIM-1 (percent stained): 3%
[5]
  Percent of activated T cells that express TIM-1 (percent stained): 6%
[6]
  Percent of activated T cells that express TIM-1 (percent stained): 3%
[7]
  Percent of activated T cells that express TIM-1 (percent stained): 2%
[8]
  Percent of activated T cells that express TIM-1 (percent stained): 1%
[9]
  Percent of activated T cells that express TIM-1 (percent stained): 2%
[10]
  Percent of activated T cells that express TIM-1 (percent stained): 1%
